Experiments:
[1] = target: T1, glycerate kinase (GarK; class II glycerate kinase, MOFRL family) (Thermoproteus tenax, UniProt G4RPE9); assay: coupled assay, effector study; format: biochemical; details: product inhibitor, suggested competitive with ATP; 0.05 mM D-glycerate, 0.05 mM ATP (non-saturating), pH 7.5, 70 °C; mean of two measurements
T1 construct: full-length ORF, 398 residues, pET-24a (NdeI/EcoRI), E. coli BL21(DE3), no tag mentioned, conventional purification

O=C(O)[C@H](O)CO = assay: discontinuous coupled assay (enolase, pyruvate kinase, lactate dehydrogenase; NADH); format: biochemical, Thermoproteus tenax; details: 5 mM ATP, 20 mM Mg2+, pH 7.5, 70 °C, D-glycerate below 0.3 mM (substrate inhibition above)
[2] = tested on: Nc1ncnc2c1ncn2[C@@H]1O[C@H](COP(=O)(O)OP(=O)(O)OP(=O)(O)O)[C@@H](O)[C@H]1O; assay: as above; format: biochemical, Thermoproteus tenax; details: D-glycerate, 20 mM Mg2+, pH 7.5, 70 °C

% activity of control at 0.1 mM [1] [%]	Compound	Km (O=C(O)[C@H](O)CO) [µM]	kcat (O=C(O)[C@H](O)CO) [s⁻¹]	Km [2] [µM]	kcat [2] [s⁻¹]
39.1	Nc1ncnc2c1ncn2[C@@H]1O[C@H](COP(=O)(O)OP(=O)(O)O)[C@@H](O)[C@H]1O [ADP]				
	glycerate kinase (GarK; class II glycerate kinase, MOFRL family) (Thermoproteus tenax Kra 1)	20 ± 10	3.57	30 ± 10	3.12
